Measured values from US20180371086A1 (Gilead, published 2018).

Assays:
[1] = target: T1, Human FcRn (human, UniProt P55899 24-297; P61769 21-119); assay: ELISA, FcRn coated on plate, pH 6.0
T1 construct: also called neonatal Fc receptor
Method: (§1) The binding of antibodies to FcRn of various antibody variants at different pHs was determined. A 96-well Maxisorp plate was coated with 100 ul of 5 μg/ml FcRn. The plate was incubated overnight at 4° C., and then blocked with 4% skim milk for 2 hr at room temperature after washing 3 times with 0.05% Tween 20 washing buffer. […] The plate was then washed 3 times and 100 μL of Fab-anti-human Fab-HRP or Goat anti-human IgG-HRP secondary antibody diluted in 4% skimmed milk was added. Plates were then incubated 50 min at room temperature, washed three times, and 100 μL fresh TMB substrate was added. Plates were developed for 3 minutes on bench with gentle shaking. Plate was quenched with 100 μL 1M HCl, shaken briefly, read at A450 on a spectramax m5 plate reader.

[2] = target: T1, Human FcRn; assay: ELISA, FcRn coated on plate, pH 7.0
Method: as §1

[3] = target: T1, Human FcRn; assay: ELISA, FcRn coated on plate; pH 7.0/6.0 ratio against that of PGT121
Method: as §1

[4] = target: HIV-1 Env (gp120) of virus 1489 (HIV-1); assay: cell-based or functional assay
[5] = target: HIV-1 Env (gp120) of virus 727 (HIV-1); assay: cell-based or functional assay
[6] = target: HIV-1 Env (gp120) of virus 712 (HIV-1); assay: cell-based or functional assay
[7] = target: HIV-1 Env (gp120) of virus 7015 (HIV-1); assay: cell-based or functional assay
[8] = target: HIV-1 Env (gp120) of virus 593 (HIV-1); assay: cell-based or functional assay
[9] = target: HIV-1 Env (gp120) of virus WITO (HIV-1 (clone WITO)); assay: cell-based or functional assay
[10] = target: HIV-1 Env (gp120) of virus 8339 (HIV-1); assay: cell-based or functional assay
[11] = target: HIV-1 Env (gp120) of virus 7552 (HIV-1); assay: cell-based or functional assay
[12] = target: HIV-1 Env (gp120) of virus BaL (HIV-1); assay: cell-based or functional assay
[13] = target: HIV-1 Env (gp120) of virus 8398 (HIV-1); assay: cell-based or functional assay
[14] = target: HIV-1 Env (gp120) of virus REJO (HIV-1); assay: cell-based or functional assay
[15] = target: HIV-1 Env (gp120) of virus CH106 (HIV-1); assay: cell-based or functional assay
[16] = target: HIV-1 Env (gp120) of virus 7576 (HIV-1); assay: cell-based or functional assay
[17] = target: HIV-1 Env (gp120) of virus 8176 (HIV-1); assay: cell-based or functional assay
[18] = target: HIV-1 Env (gp120) of virus 7051 (HIV-1); assay: cell-based or functional assay
[19] = target: HIV-1 Env (gp120) of virus 8106 (HIV-1); assay: cell-based or functional assay
[20] = target: HIV-1 Env (gp120) of virus CH058 (HIV-1); assay: cell-based or functional assay
[21] = target: HIV-1 Env (gp120) of virus 8089 (HIV-1); assay: cell-based or functional assay
[22] = target: HIV-1 Env (gp120) of virus 657 (HIV-1); assay: cell-based or functional assay
[23] = target: HIV-1 Env (gp120) of virus 7467 (HIV-1); assay: cell-based or functional assay
[24] = target: HIV-1 Env (gp120) of virus 7406 (HIV-1); assay: cell-based or functional assay
[25] = target: HIV-1 Env (gp120) of virus 8320 (HIV-1); assay: cell-based or functional assay

T1 sequence (P55899 24-297 limits assumed, chain 1 of 2): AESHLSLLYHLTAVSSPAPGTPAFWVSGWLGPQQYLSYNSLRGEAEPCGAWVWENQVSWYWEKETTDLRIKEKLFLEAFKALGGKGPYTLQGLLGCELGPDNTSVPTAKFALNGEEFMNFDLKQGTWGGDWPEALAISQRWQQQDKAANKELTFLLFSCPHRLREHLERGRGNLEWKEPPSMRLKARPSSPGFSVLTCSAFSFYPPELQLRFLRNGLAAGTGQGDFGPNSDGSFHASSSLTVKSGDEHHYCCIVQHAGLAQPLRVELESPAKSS
T1 sequence (P61769 21-119 limits assumed, chain 2 of 2): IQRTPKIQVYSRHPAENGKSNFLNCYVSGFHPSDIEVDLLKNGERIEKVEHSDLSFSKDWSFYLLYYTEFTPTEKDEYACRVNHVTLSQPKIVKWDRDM

B1: PGT121.60 hIgG1/hLambda (antibody)
heavy: QMQLQESGPGLVKPSETLSLTCSVSGASISDSYWSWIRRSPGKGLEWIGYVHKSGDTNYNPSLKSRVHLSLDTSKNQVSLSLTGVTAADSGKYYCARTLHGRRIYGIVAFNEWFTYFYMDVWGTGTQVTVSSASTKGPSVFPLAPSSKSTSGGTAALGCLVKDYFPEPVTVSWNSGALTSGVHTFPAVLQSSGLYSLSSVVTVPSSSLGTQTYICNVNHKPSNTKVDKKVEPKSCDKTHTCPPCPAPELLAGPDVFLFPPKPKDTLMISRTPEVTCVVVDVSHEDPEVKFNWYVDGVEVHNAKTKPREEQYNSTYRVVSVLTVLHQDWLNGKEYKCKVSNKALPLPEEKTISKAKGQPREPQVYTLPPSREEMTKNQVSLTCLVKGFYPSDIAVEWESNGQPENNYKTTPPVLDSDGSFFLYSKLTVDKSRWQQGNVFSCSVLHEALHSHYTQKSLSLSPGK
light: not shown
EC50 [1]: 0.22 nM
EC50 [2]: 78 nM
Fold vs PGT121 [3]: 11 fold
EC50 (µg/mL), killing of HIV-infected cells (Mean) [4]: 0.276 µg/mL
Emax, killing of HIV-infected cells (Mean) [4]: 70%
EC50 (µg/mL), killing of HIV-infected cells (Mean) [5]: 0.034 µg/mL
Emax, killing of HIV-infected cells (Mean) [5]: 66%
EC50 (µg/mL), killing of HIV-infected cells (Mean) [6]: 0.084 µg/mL
Emax, killing of HIV-infected cells (Mean) [6]: 71%
EC50 (µg/mL), killing of HIV-infected cells (Mean) [7]: 0.516 µg/mL
Emax, killing of HIV-infected cells (Mean) [7]: 55%
EC50 (µg/mL), killing of HIV-infected cells (Mean) [8]: 0.912 µg/mL
Emax, killing of HIV-infected cells (Mean) [8]: 56%
EC50 (µg/mL), killing of HIV-infected cells (Mean) [9]: 2.52 µg/mL
Emax, killing of HIV-infected cells (Mean) [9]: 71%
EC50 (µg/mL), killing of HIV-infected cells (Mean) [10]: 3.81 µg/mL
Emax, killing of HIV-infected cells (Mean) [10]: 13%
EC50 (µg/mL), killing of HIV-infected cells (Mean) [11]: 0.011 µg/mL
Emax, killing of HIV-infected cells (Mean) [11]: 66%
EC50 (µg/mL), killing of HIV-infected cells (Mean) [12]: 0.048 µg/mL
Emax, killing of HIV-infected cells (Mean) [12]: 73%
EC50 (µg/mL), killing of HIV-infected cells (Mean) [13]: 0.067 µg/mL
Emax, killing of HIV-infected cells (Mean) [13]: 76%
EC50 (µg/mL), killing of HIV-infected cells (Mean) [14]: 2.6 µg/mL
Emax, killing of HIV-infected cells (Mean) [14]: 0%
EC50 (µg/mL), killing of HIV-infected cells (Mean) [15]: 6.17 µg/mL
Emax, killing of HIV-infected cells (Mean) [15]: 46%
EC50 (µg/mL), killing of HIV-infected cells (Mean) [16]: 0.016 µg/mL
Emax, killing of HIV-infected cells (Mean) [16]: 71%
EC50 (µg/mL), killing of HIV-infected cells (Mean) [17]: 1.01 µg/mL
Emax, killing of HIV-infected cells (Mean) [17]: 56%
EC50 (µg/mL), killing of HIV-infected cells (Mean) [18]: 0.394 µg/mL
Emax, killing of HIV-infected cells (Mean) [18]: 49%
EC50 (µg/mL), killing of HIV-infected cells (Mean) [19]: 0.11 µg/mL
Emax, killing of HIV-infected cells (Mean) [19]: 75%
EC50 (µg/mL), killing of HIV-infected cells (Mean) [20]: 0.16 µg/mL
Emax, killing of HIV-infected cells (Mean) [20]: 71%
EC50 (µg/mL), killing of HIV-infected cells (Mean) [21]: 0.226 µg/mL
Emax, killing of HIV-infected cells (Mean) [21]: 64%
EC50 (µg/mL), killing of HIV-infected cells (Mean) [22]: 1.44 µg/mL
Emax, killing of HIV-infected cells (Mean) [22]: 62%
EC50 (µg/mL), killing of HIV-infected cells (Mean) [23]: 0.139 µg/mL
Emax, killing of HIV-infected cells (Mean) [23]: 54%
EC50 (µg/mL), killing of HIV-infected cells (Mean) [24]: 0.09 µg/mL
Emax, killing of HIV-infected cells (Mean) [24]: 63%
EC50 (µg/mL), killing of HIV-infected cells (Mean) [25]: 2.12 µg/mL
Emax, killing of HIV-infected cells (Mean) [25]: 0%
